One block for each molecule: values may come before it.
How the values were obtained:
[1] = test system: esophageal cancer PDX model E7; assay: Tumor growth inhibition in esophageal cancer PDX model; format: in vivo, NOD/SCID mice; conditions: 26th day; antibody 20 mg/kg i.p. twice a week, cisplatin 3 mg/kg i.v. once a week, 4 weeks
Description: Human gremlin IHC specifically positive esophageal tumor tissue (E7) was obtained from Beijing Cancer Hospital passage in NOD/SCID mice and established PDX bank. […] Each mouse was subcutaneously inoculated with a small tumor tissue block approximately 3 mm in diameter which sheared from integrated tumor decollement form a tumor bearing mouse. 18 days after inoculation animals with tumor size at about 70 mmn^3 were selected and randomly divided into 4 groups, each group consisting of 8 mice. Then the mice were treated with isotype control+PBS, the anti-GREM1 antibody of the present disclosure at dose of 20 mg/kg, Cisplatin at dose of 3 mg/kg and combination of the anti-GREM1 antibody of the present disclosure and Cisplatin. Isotype control and the anti-GREM1 antibody of the present disclosure were administrated twice a week for 4 weeks by i.p. injection and PBS, while Cisplatin was administrated once a week for 4 weeks by i.v. injection. Animals were sacrificed at the end of the study with CO2 inhalation. Tumor size was measured twice or triple times a week in two dimensions using a caliper (INSIZE) and the volume was expressed in mmA3 using the formula: V=0.5 a*b^2 where a and b are the long and short diameters of the tumor, respectively. Results were analyzed using Prism GraphPad and expressed as mean±S.E.M. Comparisons between two groups were made by T-test, and the difference is considered significant if p is *<0.05 and **<0.01.

[2] = biological target: human Gremlin/GREM1 protein (Acro) (human) (UniProt O60565); assay: ELISA, coated hGREM1 (ACRO)
[3] = biological target: human Gremlin/GREM1 protein (Acro) (human) (UniProt O60565); assay: ELISA, binding to hGremlin-his
[4] = biological target: human Gremlin/GREM1 protein (Acro) (human) (UniProt O60565); assay: BLI (ForteBio), human GREM1-his on NTA biosensor, antibody at 100, 50 and 25 nM
[5] = biological target: modified human GREM1-his (human) (UniProt O60565); assay: blocking ELISA; competitor coated human BMP2; 1 ug/ml modified human GREM1-his detected with anti-his HRP
[6] = biological target: modified human GREM1-his (human) (UniProt O60565); assay: blocking ELISA; competitor coated human BMP4; 1 ug/ml modified human GREM1-his detected with anti-his HRP
[7] = biological target: T1, human Gremlin/GREM1 protein (Acro) (human, UniProt O60565 25-184); assay: ELISA, coated hGREM1 (ACRO)
T1 construct: Bought protein (ACRO); also called hGREM1 (ACRO); human GREM1; not shown: his tag
T1 sequence (looked up): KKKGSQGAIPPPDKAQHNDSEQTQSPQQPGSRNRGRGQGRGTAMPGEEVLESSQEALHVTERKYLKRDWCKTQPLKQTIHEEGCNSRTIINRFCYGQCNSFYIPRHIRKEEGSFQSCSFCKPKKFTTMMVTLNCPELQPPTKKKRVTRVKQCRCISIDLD
Experimental: (§1) A transparent polystyrene culture plate (BEAVER) was coated with a high pH coating buffer containing 0.5 μg/ml hGREM1 (ACRO) and mouse gremlin (R&D) at 100 μl/well at 4° C. overnight. Then, the culture plate was washed once with PBS and 0.1% of Tween 20 (Sigma) on an automatic culture plate washer. 100 μl of a blocking solution consisting of PBS, 1% of BSA, 1% of standard goat serum and 0.50% of Tween 20 (Sigma) was added into each well for incubation at room temperature for 2 hours. Then, 100 μl of an antibody (started with 2 μg/ml and continuously diluted) in an antibody dilution buffer containing PBS, 1% of BSA, 1% of standard goat serum and 0.01% of Tween 20 was added into each well of the culture plate for incubation at room temperature for 1 hour. Then, the culture plate was washed with 200 μl of a solution containing PBS and 0.1% of Tween 20 for three times, and goat anti-mouse IgG-HRP (Abcam) at a ratio of 1:10000 was added at 100 μl/well for incubation at room temperature for 1 hour. Then, the culture plate was washed with a solution containing PBS and 0.1% of Tween 20 for 3 times. Finally, TMB (Pierce) was added into each well at 100 μl/well, and several minutes later, 50 μl of a termination solution was added into each well. The culture plate was read on a Multiscan FC microplate reader (Thermo Scientific) at 450 nM.

[8] = biological target: T1, human Gremlin/GREM1 protein (Acro); assay: BLI (ForteBio), human GREM1-his on NTA biosensor
Experimental: (§2) The concentration of 0 nM was used as a reference control. The antibody to be tested was diluted to a concentration of 100 nM, 50 nM and 25 nM with a ForteBio kinetic buffer (including PBS with a pH value of 7.4, 0.1% of BSA and 0.002% of Tween-20). […] Then, dissociation was performed in a kinetic buffer for 90 seconds to obtain Koff factor data.

[9] = biological target: T1, human Gremlin/GREM1 protein (Acro); assay: BLI (ForteBio), human GREM1-his on NTA biosensor, antibody at 100, 50 and 25 nM
Experimental: as §2

Human GREM1 = biological target: T2, Human GREM1 (Homo sapiens, UniProt O60565); assay: Binding affinity to human GREM1 through ELISA; conditions: for EC50 of binding to hGremlin-his: Table 17
T2 construct: His; purchased ACRO
T2 sequence (O60565 25-184): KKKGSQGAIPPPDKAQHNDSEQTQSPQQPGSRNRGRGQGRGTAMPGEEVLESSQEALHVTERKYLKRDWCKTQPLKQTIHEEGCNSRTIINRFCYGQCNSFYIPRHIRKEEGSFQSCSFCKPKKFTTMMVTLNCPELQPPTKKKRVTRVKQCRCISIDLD
Experimental: as §1, with “nM. As shown in Table 16 and Table 17, compared with a reference antibody 6245P, the anti-GREM1 antibody used in the present disclosure and other humanized anti-GREM1 antibodies (e.g., Hu14E3_HaLb, Hu14E3_HbLa, Hu14E3_HbLb, Hu14E3_HcLa and Hu14E3_HcLb) have better binding affinity with human GREM1.” for “nM.”

[10] = biological target: T1, human Gremlin/GREM1 protein (Acro); assay: ELISA, binding to hGremlin-his
Experimental: as §1

Molecule: N.N.[Cl][Pt][Cl] [Cisplatin, reference compound]
TGI (%) [1]: 59.79%
Tumor size (mm^3, mean +/− S.E.M) [1]: 479.41 +/− 104.05 mm^3

B2: Hu14E3_HaLa (antibody, human IgG1, kappa, V domains shown)
VH: QVQLVQSGSELKKPGASVKVSCKASGYTFTTYGMAWMRQAPGQGLEWMGWINTLSGEPTYADDFKGRFVFSLDTSVSTAYLQISSLKAEDTAVYYCAREPMDYWGQGTMVTVSS
VL: DVVMTQSPLSLPVTLGQPASISCKSSQSLLDSDGKTYLSWLQQRPGQSPRRLIYLVSKLDSGVPDRFSGSGSGTDFTLKISRVEAEDVGVYYCWQGAHFPLTFGQGTKLEIKR
notes: also called anti-GREM1 antibody used in the present disclosure; humanized 14E3
EC50 [7]: 6.9 ng/mL
Kd [8]: < 1 nM
Kd [9]: < 0.001 nM

B3: Hu14E3_HaLa: humanized 14E3, heavy chain variable region SEQ ID NO: 7, light chain variable region SEQ ID NO: 8; antibody used in the examples (antibody, V domains shown)
VH: QVQLVQSGSELKKPGASVKVSCKASGYTFTTYGMAWMRQAPGQGLEWMGWINTLSGEPTYADDFKGRFVFSLDTSVSTAYLQISSLKAEDTAVYYCAREPMDYWGQGTMVTVSS
VL: DVVMTQSPLSLPVTLGQPASISCKSSQSLLDSDGKTYLSWLQQRPGQSPRRLIYLVSKLDSGVPDRFSGSGSGTDFTLKISRVEAEDVGVYYCWQGAHFPLTFGQGTKLEIK
EC50 (ng/ml) Human GREM1 (Human GREM1; Table 16): 6.90 ng/mL
EC50 of binding to hGremlin-his (Human GREM1): 6.9 ng/mL
TGI (%) [1]: 42.92%
Tumor size (mm^3, mean +/− S.E.M) [1]: 680.59 +/− 163.73 mm^3

B4: Hu14E3_HbLb (antibody, human IgG1, V domains shown)
VH: QIQLVQSGSELKKPGASVKVSCKASGYTFTTYGMAWMRQAPGQGLEWMGWINTLSGEPTYADDFKGRFAFSLDTSVSTAYLQISSLKAEDTAVYYCAREPMDYWGQGTMVTVSS
VL: DVVMTQSPLSLPVTLGQPASISCKSSQSLLDSDGKTYLSWLQQRPGQSPRRLISLVSKLDSGVPDRFSGSGSGTDFTLKISRVEAEDVGVYYCWQGAHFPLTFGQGTKLEIK
notes: also called humanized 14E3
EC50 of binding to hGremlin-his (Human GREM1): 6.2 ng/mL
EC50 [10]: 6.2 ng/mL

Continued, values first:

EC50 [2]: 57.5 ng/mL
EC50 [3]: 57.5 ng/mL
Kd [4]: 2.58 nM
IC50 [5]: 797 ng/mL
IC50 [6]: 638 ng/mL
B1: reference antibody 6245P (antibody, from another filing, IgG4, V domains shown)
VH: EVQLVESGGGLVQPGGSLRLSCAASGFTFNSFWMSWVRQAPGKGLEWVANIKQDGSEKYYVDSVKGRFTISRDNAKNSVYLQMNSLRAEDTAVYYCARDLVTSFDYWGQGTLVTVSS
VL: DIQMTQSPSSLSASVGDRVTITCQASQDINNYLNWYQQKPGKAPKLLIYDASYLETGVPSGFSGSGSGTDFTFTISSLQPEDIATYYCQQYDSLPYTFGQGTKLEIK

EC50 of binding to hGremlin-his (Human GREM1): 6.6 ng/mL
EC50 [10]: 6.6 ng/mL
B5: Hu14E3_HcLa (antibody, human IgG1, V domains shown)
VH: QIQLVQSGSELKKPGASVKVSCKASGSTFTTYGMAWMKQAPGQGLTWMGWINTLSGEPTYADDFKGRFAFSLDTSVSTAYLQISSLKAEDTAVYYCAREPMDYWGQGTMVTVSS
VL: DVVMTQSPLSLPVTLGQPASISCKSSQSLLDSDGKTYLSWLQQRPGQSPRRLIYLVSKLDSGVPDRFSGSGSGTDFTLKISRVEAEDVGVYYCWQGAHFPLTFGQGTKLEIK
notes: also called humanized 14E3

EC50 of binding to hGremlin-his (Human GREM1): 6.1 ng/mL
EC50 [10]: 6.1 ng/mL
B6: Hu14E3_HcLb (antibody, human IgG1, V domains shown)
VH: QIQLVQSGSELKKPGASVKVSCKASGSTFTTYGMAWMKQAPGQGLTWMGWINTLSGEPTYADDFKGRFAFSLDTSVSTAYLQISSLKAEDTAVYYCAREPMDYWGQGTMVTVSS
VL: DVVMTQSPLSLPVTLGQPASISCKSSQSLLDSDGKTYLSWLQQRPGQSPRRLISLVSKLDSGVPDRFSGSGSGTDFTLKISRVEAEDVGVYYCWQGAHFPLTFGQGTKLEIK
notes: also called humanized 14E3

EC50 of binding to hGremlin-his (Human GREM1): 6.0 ng/mL
EC50 [10]: 6 ng/mL
B7: Hu14E3_HbLa (antibody, human IgG1, V domains shown)
VH: QIQLVQSGSELKKPGASVKVSCKASGYTFTTYGMAWMRQAPGQGLEWMGWINTLSGEPTYADDFKGRFAFSLDTSVSTAYLQISSLKAEDTAVYYCAREPMDYWGQGTMVTVSS
VL: DVVMTQSPLSLPVTLGQPASISCKSSQSLLDSDGKTYLSWLQQRPGQSPRRLIYLVSKLDSGVPDRFSGSGSGTDFTLKISRVEAEDVGVYYCWQGAHFPLTFGQGTKLEIK
notes: also called humanized 14E3

EC50 of binding to hGremlin-his (Human GREM1): 5.6 ng/mL
EC50 [10]: 5.6 ng/mL
B8: Hu14E3_HaLb (antibody, human IgG1, V domains shown)
VH: QVQLVQSGSELKKPGASVKVSCKASGYTFTTYGMAWMRQAPGQGLEWMGWINTLSGEPTYADDFKGRFVFSLDTSVSTAYLQISSLKAEDTAVYYCAREPMDYWGQGTMVTVSS
VL: DVVMTQSPLSLPVTLGQPASISCKSSQSLLDSDGKTYLSWLQQRPGQSPRRLISLVSKLDSGVPDRFSGSGSGTDFTLKISRVEAEDVGVYYCWQGAHFPLTFGQGTKLEIK
notes: also called humanized 14E3

— patent US20260265352A1, “STABLE PHARMACEUTICAL FORMULATION COMPRISING ANTI-GREMLIN1 ANTIBODY” (SUZHOU TRANSCENTA THERAPEUTICS CO., LTD., priority 2022, published 2026)
